# Reference: PMC4051120, “Drastic changes in conformational dynamics of the antiterminator M2-1 regulate transcription efficiency in Pneumovirinae”
# Experiments:
# [1] = biological target: T1, HMPV M2-1 (Human metapneumovirus strain NL1-00 (A1), UniProt Q8QN58 1-187); assay: SAXS titration; Zn2+ (zinc finger intact); 150 mM NaCl, 500 mM NDSB-201; closed conformation induced, Rg up to ~8 nm, aggregation; SAXS: 20 mM Tris pH 7.5, 150 mM NaCl, 500 mM NDSB-201, +/- 5 mM EDTA, ~0.2 mg/ml protein; TSA: 50 mM HEPES pH 7.5, 150 mM NaCl, 20-99 C; crystals: 28% PEG MME 2000, 0.1 M bis-Tris pH 6.5, 20 C; conditions: protein: recombinant; tags: N-terminal His6-3C, optionally removed by 3C protease; chain copies: 4
# [2] = biological target: T1, HMPV M2-1; assay: SAXS titration; Zn2+ (zinc finger intact); 150 mM NaCl, 500 mM NDSB-201; Rg increase, aggregation; SAXS: 20 mM Tris pH 7.5, 150 mM NaCl, 500 mM NDSB-201, +/- 5 mM EDTA, ~0.2 mg/ml protein; TSA: 50 mM HEPES pH 7.5, 150 mM NaCl, 20-99 C; crystals: 28% PEG MME 2000, 0.1 M bis-Tris pH 6.5, 20 C; conditions: protein: recombinant; tags: N-terminal His6-3C, optionally removed by 3C protease; chain copies: 4
Binder,binding result [1],binding result [2]
AGUUAAUUAAAAA (ssRNA) [F gene end RNA (positive sense)],binds,–
ACGCGAAAAAAU (ssRNA) [leader RNA 1-12 (positive sense)],–,binds
